{"source": "paper PMC8776070", "origin": "cited, not measured here", "key": {"CXCR2 (Homo sapiens)": {"target": "CXCR2 (Homo sapiens) (UniProt P25025)", "sequence (P25025 whole entry)": "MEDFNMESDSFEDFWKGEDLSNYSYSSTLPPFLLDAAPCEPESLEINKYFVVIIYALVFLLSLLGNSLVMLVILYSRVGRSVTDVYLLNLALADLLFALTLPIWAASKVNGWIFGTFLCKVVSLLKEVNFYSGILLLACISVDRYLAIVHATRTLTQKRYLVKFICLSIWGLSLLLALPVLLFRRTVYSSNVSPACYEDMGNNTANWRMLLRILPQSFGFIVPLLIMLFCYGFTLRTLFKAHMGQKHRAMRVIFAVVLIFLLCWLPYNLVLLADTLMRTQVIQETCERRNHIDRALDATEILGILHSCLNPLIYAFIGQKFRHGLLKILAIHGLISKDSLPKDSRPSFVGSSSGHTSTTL"}, "ACKR1 (Homo sapiens)": {"target": "ACKR1 (Homo sapiens) (UniProt Q16570)", "sequence (Q16570 whole entry)": "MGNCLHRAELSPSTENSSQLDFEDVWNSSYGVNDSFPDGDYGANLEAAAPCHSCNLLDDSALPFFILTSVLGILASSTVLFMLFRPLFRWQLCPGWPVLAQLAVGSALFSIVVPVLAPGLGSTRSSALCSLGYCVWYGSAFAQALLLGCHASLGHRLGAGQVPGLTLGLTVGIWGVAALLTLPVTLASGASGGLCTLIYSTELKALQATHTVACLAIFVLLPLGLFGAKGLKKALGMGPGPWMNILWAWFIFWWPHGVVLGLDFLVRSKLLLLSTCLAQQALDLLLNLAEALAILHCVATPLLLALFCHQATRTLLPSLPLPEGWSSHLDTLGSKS"}, "CXCR1 (Homo sapiens)": {"target": "CXCR1 (Homo sapiens) (UniProt P25024)", "sequence (P25024 whole entry)": "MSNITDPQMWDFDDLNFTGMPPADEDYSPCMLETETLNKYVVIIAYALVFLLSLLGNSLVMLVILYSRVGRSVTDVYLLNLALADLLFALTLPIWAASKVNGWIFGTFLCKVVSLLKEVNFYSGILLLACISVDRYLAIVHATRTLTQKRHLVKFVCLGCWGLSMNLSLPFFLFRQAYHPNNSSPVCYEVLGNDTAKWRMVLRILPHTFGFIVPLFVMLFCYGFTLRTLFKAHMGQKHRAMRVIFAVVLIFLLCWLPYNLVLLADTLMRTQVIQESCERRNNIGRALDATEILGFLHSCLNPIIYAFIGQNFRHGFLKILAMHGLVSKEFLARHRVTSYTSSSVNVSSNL"}}, "data": [{"substance": "CXCL1 (from UniProt P09341)", "values": [{"measurement": "Kd", "setting": "CXCR2 (Homo sapiens)", "value": 3, "unit": "nM"}, {"measurement": "Kd", "setting": "ACKR1 (Homo sapiens)", "value": 1.81, "unit": "nM"}, {"measurement": "Kd", "setting": "CXCR1 (Homo sapiens)", "value": 300, "unit": "nM"}]}]}
